Patent US10370647B2 (priority 2015, dated 2019)

Tests used:
ERK = assay: Change in pERK/tERK by EGF stimulation (In-Cell ELISA); format: cell-based; settings: all cells (Low, UCA1 Low, Empty Low, KFtx); 0.2 ng/μl EGF, 30 minutes; 10% or 0.5% FBS
Method: The KFtx series (Low, UCA1 Low, Empty Low, and KFtx) were seeded at a cell density of 6×10^3/well in 10% FBS-containing RPMI on a 96-well plate, and were then cultured at 37° C. for 12 hours. Thereafter, the medium was exchanged with RPMI containing 10% FBS or 0.5% FBS. The cells were further cultured at 37° C. for 24 hours, and the medium was then exchanged with another one, to result in an EGF concentration of 0.2 ng/μl. After 30 minutes of EGF stimulation, tERK (total-ERK) and pERK (phosphorylated-ERK) were measured using Pierce Colorimetric In-Cell ELISA Kits (n=3). […] In addition, it was confirmed that, in all cells, pERK was activated by EGF stimulation and the percentage of the pERK was increased.

KFtx series = format: cell-based; settings: 72 hours

B1: EGF (protein, UniProt P01133 23-1207, looked up)
Pro-epidermal growth factor: PQHWSCPEGTLAGNGNSTCVGPAPFLIFSHGNSIFRIDTEGTNYEQLVVDAGVSVIMDFHYNEKRIYWVDLERQLLQRVFLNGSRQERVCNIEKNVSGMAINWINEEVIWSNQQEGIITVTDMKGNNSHILLSALKYPANVAVDPVERFIFWSSEVAGSLYRADLDGVGVKALLETSEKITAVSLDVLDKRLFWIQYNREGSNSLICSCDYDGGSVHISKHPTQHNLFAMSLFGDRIFYSTWKMKTIWIANKHTGKDMVRINLHSSFVPLGELKVVHPLAQPKAEDDTWEPEQKLCKLRKGNCSSTVCGQDLQSHLCMCAEGYALSRDRKYCEDVNECAFWNHGCTLGCKNTPGSYYCTCPVGFVLLPDGKRCHQLVSCPRNVSECSHDCVLTSEGPLCFCPEGSVLERDGKTCSGCSSPDNGGCSQLCVPLSPVSWECDCFPGYDLQLDEKSCAASGPQPFLLFANSQDIRHMHFDGTDYGTLLSQQMGMVYALDHDPVENKIYFAHTALKWIERANMDGSQRERLIEEGVDVPEGLAVDWIGRRFYWTDRGKSLIGRSDLNGKRSKIITKENISQPRGIAVHPMAKRLFWTDTGINPRIESSSLQGLGRLVIASSDLIWPSGITIDFLTDKLYWCDAKQSVIEMANLDGSKRRRLTQNDVGHPFAVAVFEDYVWFSDWAMPSVMRVNKRTGKDRVRLQGSMLKPSSLVVVHPLAKPGADPCLYQNGGCEHICKKRLGTAWCSCREGFMKASDGKTCLALDGHQLLAGGEVDLKNQVTPLDILSKTRVSEDNITESQHMLVAEIMVSDQDDCAPVGCSMYARCISEGEDATCQCLKGFAGDGKLCSDIDECEMGVPVCPPASSKCINTEGGYVCRCSEGYQGDGIHCLDIDECQLGEHSCGENASCTNTEGGYTCMCAGRLSEPGLICPDSTPPPHLREDDHHYSVRNSDSECPLSHDGYCLHDGVCMYIEALDKYACNCVVGYIGERCQYRDLKWWELRHAGHGQQQKVIVVAVCVVVLVMLLLLSLWGAHYYRTQKLLSKNPKNPYEESSRDVRSRRPADTEDGMSSCPQPWFVVIKEHQDLKNGGQPVAGEDGQAADGSMQPTSWRQEPQLCGMGTEQGCWIPVSSDKGSCPQVMERSFHMPSYGTQTLEGGVEKPHSLLSANPLWQQRALDPPHQMELTQ
modifications: Pro-epidermal growth factor
percentage of the pERK (ERK): increased
replication ability of the vaccinia virus by EGF stimulation (KFtx series): not enhanced
